{"source": "paper PMC9478404", "test_in_all_cases": "ITC; DBD (500 μM) titrated into NRD (50 μM) at 19 °C; 150 mM NaCl, 20 mM Tris, 1 mM BME (pH 8); MicroCal VP-ITC; mean of three technical replicates", "key": {"[1]": {"biological_target": "B-Myb NRD^510–600 (C-terminal half of the NRD) (human) (UniProt P10244)", "sequence (P10244 510-600)": "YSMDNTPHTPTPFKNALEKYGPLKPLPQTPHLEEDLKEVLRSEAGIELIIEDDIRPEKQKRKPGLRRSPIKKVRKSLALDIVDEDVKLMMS"}, "[2]": {"biological_target": "B-Myb NRD^510–600 S577A (human) (UniProt P10244)", "sequence (P10244 510-600 S577A)": "as the sequence (P10244 510-600) above, with S68A counted along it"}, "[3]": {"biological_target": "B-Myb NRD^510–600 T538A (human) (UniProt P10244)", "sequence (P10244 510-600 T538A)": "as the sequence (P10244 510-600) above, with T29A counted along it"}}, "data": [{"substance": "B-Myb DNA-binding domain (B-Myb^34–183) (from UniProt P10244-1 34-183) (domain or fragment)", "values": [{"measurement": "Kd", "setting": "[1]", "value": 4.9, "unit": "µM"}, {"measurement": "Kd", "setting": "[2]", "value": 3.2, "unit": "µM"}, {"measurement": "Kd", "setting": "[3]", "value": 6.5, "unit": "µM"}]}]}
